Results taken from patent US20180258163A1 (Chugai, published 2018).
Where a chain is given by its changes, count along the chain named. Names may count otherwise.

T1: soluble human FcγRIIb (human, UniProt P31994 43-217, limits assumed)
T1 construct: soluble His-tagged form; also called hFcγRIIb
T1 sequence (looked up): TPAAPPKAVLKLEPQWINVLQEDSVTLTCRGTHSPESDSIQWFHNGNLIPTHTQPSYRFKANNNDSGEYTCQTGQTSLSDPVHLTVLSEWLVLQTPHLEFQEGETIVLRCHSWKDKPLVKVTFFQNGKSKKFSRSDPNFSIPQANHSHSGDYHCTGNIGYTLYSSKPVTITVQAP

B1: Ab1H-P939/Ab1L (antibody, human IgG1, kappa, name in EU numbering)
heavy: QVQLVESGGGLVQPGGSLRLSCAASGFTLSNHDMTWVRQAPGKGLEYVSIINTYGNHWYANWASGRFTISRDNSKNTVYLQIDSLRAEDTATYYCARETHHGSSGIDHWGQGTLVTVSSASTKGPSVFPLAPSSKSTSGGTAALGCLVKDYFPEPVTVSWNSGALTSGVHTFPAVLQSSGLYSLSSVVTVPSSSLGTQTYICNVNHKPSNTKVDKKVEPKSCDKTHTCPPCPAPELLGGDSVFLFPPKPKDTLMISRTPEVTCVVVDVSHERPEVKFNWYVDGVEVHNAKTKPREEQYNATYRVVSVLTVLHQDWLNGKEYKCKVSNKALPAPIEKTISKAKGQPREPQVYTLPPSREEMTKNQVSLTCLVKGFYPSDIAVEWESNGQPENNYKTTPPVLDSDGSFFLYSKLTVDKSRWQQGNVFSCSVMHEALHNHYTQKSLSLSP
light: DIQMTQSPSSVSASVGDRVTITCQASESIYSGLAWYQQKPGQPPKLLIYDHSTLASGVPSRFSGSGSGTEYALTISSLQPEDFATYYCQHADYAHHSDNVFGGGTKVEIKRTVAAPSVFIFPPSDEQLKSGTASVVCLLNNFYPREAKVQWKVDNALQSGNSQESVTEQDSKDSTYSLSSTLTLSKADYEKHKVYACEVTHQGLSSPVTKSFNRGEC
notes: copies: 2 + 2
B2: Ab1H-P940/Ab1L (antibody, human IgG1, kappa, name in EU numbering)
heavy: B1 heavy with E271R, R272D
light: B1 light
notes: copies: 2 + 2
B3: Ab1H-P941/Ab1L (antibody, human IgG1, kappa, name in EU numbering)
heavy: B1 heavy with H270R, R272D
light: B1 light
notes: copies: 2 + 2
B4: Ab1H/Ab1L004 (antibody, human IgG1, kappa)
heavy: not shown
light: B1 light with Q24K, E27K
notes: copies: 2 + 2
B5: Ab1H/Ab1L012 (antibody, human IgG1, kappa)
heavy: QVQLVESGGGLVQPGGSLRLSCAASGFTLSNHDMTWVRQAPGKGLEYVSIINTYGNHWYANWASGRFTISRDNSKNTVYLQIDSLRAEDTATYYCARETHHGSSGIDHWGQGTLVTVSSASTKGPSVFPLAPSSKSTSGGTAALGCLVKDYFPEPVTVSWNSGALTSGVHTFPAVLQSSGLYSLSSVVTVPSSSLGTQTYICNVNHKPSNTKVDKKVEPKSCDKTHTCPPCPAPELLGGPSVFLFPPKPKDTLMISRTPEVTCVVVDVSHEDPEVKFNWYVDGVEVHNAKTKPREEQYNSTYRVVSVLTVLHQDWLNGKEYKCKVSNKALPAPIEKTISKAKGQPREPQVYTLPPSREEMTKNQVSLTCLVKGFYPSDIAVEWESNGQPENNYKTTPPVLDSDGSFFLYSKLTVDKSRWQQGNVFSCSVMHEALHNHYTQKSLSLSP
light: B1 light with S65R, T69R
notes: copies: 2 + 2
B6: Ab1H/Ab1L011 (antibody, human IgG1, kappa)
heavy: not shown
light: B1 light with S52K, S56K
notes: copies: 2 + 2
B7: Ab1H/Ab1L023 (antibody, human IgG1, kappa)
heavy: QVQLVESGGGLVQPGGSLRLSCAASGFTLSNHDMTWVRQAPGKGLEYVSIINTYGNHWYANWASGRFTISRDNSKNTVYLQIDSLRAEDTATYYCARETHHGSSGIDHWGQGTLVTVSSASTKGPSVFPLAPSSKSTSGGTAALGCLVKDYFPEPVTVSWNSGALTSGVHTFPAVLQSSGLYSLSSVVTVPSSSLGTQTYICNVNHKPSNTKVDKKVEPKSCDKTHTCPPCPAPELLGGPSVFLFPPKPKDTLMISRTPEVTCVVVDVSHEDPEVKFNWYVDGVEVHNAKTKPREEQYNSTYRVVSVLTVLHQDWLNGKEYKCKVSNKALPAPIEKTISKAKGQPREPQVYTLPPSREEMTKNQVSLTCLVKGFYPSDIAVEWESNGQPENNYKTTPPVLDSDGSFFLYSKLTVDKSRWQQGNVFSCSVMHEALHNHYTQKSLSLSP
light: B1 light with Q24R, E27R, S76R, Q79K
notes: copies: 2 + 2
B8: Ab1H/Ab1L022 (antibody, human IgG1, kappa)
heavy: not shown
light: B1 light with Q24R, E27R, T74K, S77R
notes: copies: 2 + 2
B9: Ab1H/Ab1L007 (antibody, human IgG1, kappa)
heavy: not shown
light: B1 light with Q37R
notes: copies: 2 + 2
B10: Ab1H/Ab1L009 (antibody, human IgG1, kappa)
heavy: not shown
light: B1 light with L46R, Y49K
notes: copies: 2 + 2
B11: Ab1H/Ab1L038 (antibody, human IgG1, kappa)
heavy: not shown
light: B1 light with Q24R, E27R, S52R, S56R, T74K, S77R
notes: copies: 2 + 2
B12: Ab1H/Ab1L041 (antibody, human IgG1, kappa)
heavy: not shown
light: B1 light with Q24R, E27R, S52R, S56R, S76R, Q79K
notes: copies: 2 + 2
B13: Ab1H/Ab1L020 (antibody, human IgG1, kappa)
heavy: not shown
light: B1 light with Q24R, E27R, S52K, S56K
notes: copies: 2 + 2
B14: Ab1H/Ab1L028 (antibody, human IgG1, kappa)
heavy: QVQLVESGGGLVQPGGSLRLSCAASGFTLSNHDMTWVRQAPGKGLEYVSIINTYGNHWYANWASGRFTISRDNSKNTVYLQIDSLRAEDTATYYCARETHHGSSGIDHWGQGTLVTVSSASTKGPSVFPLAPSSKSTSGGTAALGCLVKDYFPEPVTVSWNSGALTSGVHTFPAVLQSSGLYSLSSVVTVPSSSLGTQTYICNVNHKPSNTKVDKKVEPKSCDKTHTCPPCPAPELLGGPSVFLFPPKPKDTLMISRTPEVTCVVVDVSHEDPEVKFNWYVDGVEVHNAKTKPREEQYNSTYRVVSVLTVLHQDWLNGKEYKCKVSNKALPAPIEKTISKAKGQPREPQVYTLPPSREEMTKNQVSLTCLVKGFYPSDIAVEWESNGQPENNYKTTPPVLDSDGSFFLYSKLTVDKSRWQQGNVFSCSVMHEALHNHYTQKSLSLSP
light: B1 light with A25R, S26R, S52R, S56R
notes: copies: 2 + 2
B15: Ab1H/Ab1L040 (antibody, human IgG1, kappa)
heavy: not shown
light: B1 light with Q24R, E27R, G41R, Q42K, S76R, Q79K
notes: copies: 2 + 2
B16: Ab1H/Ab1L006 (antibody, human IgG1, kappa)
heavy: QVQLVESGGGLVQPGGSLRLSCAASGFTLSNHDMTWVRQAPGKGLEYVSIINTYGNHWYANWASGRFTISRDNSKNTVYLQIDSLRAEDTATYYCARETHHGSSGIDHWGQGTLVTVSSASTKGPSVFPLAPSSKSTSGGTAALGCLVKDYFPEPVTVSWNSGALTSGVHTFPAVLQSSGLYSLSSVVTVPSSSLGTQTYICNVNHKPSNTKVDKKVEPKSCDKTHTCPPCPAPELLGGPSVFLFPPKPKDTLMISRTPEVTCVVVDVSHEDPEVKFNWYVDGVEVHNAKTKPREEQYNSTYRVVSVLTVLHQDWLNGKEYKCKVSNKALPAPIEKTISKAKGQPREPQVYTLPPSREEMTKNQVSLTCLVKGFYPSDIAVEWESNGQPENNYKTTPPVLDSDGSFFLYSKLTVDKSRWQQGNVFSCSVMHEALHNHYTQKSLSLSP
light: B1 light with A25R, S26R
notes: copies: 2 + 2
B17: Ab1H/Ab1L013 (antibody, human IgG1, kappa)
heavy: not shown
light: B1 light with T74K, S77R
notes: copies: 2 + 2
B18: Ab1H/Ab1L039 (antibody, human IgG1, kappa)
heavy: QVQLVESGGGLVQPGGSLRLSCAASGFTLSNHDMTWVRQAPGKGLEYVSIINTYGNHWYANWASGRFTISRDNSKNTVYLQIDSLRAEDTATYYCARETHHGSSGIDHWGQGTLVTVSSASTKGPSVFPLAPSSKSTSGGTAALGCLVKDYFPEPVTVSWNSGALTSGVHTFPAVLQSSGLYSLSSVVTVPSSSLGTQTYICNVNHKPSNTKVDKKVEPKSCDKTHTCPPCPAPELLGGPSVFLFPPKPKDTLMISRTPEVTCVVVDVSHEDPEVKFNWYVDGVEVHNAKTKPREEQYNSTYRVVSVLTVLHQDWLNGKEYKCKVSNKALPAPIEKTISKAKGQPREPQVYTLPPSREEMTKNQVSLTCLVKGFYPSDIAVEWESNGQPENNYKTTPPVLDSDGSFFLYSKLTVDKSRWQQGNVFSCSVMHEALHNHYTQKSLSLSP
light: B1 light with Q24R, E27R, T74K, S76R, S77R, Q79K
notes: copies: 2 + 2
B19: Ab1H/Ab1L025 (antibody, human IgG1, kappa)
heavy: not shown
light: B1 light with A25R, S26R, Q37R
notes: copies: 2 + 2
B20: Ab1H/Ab1L030 (antibody, human IgG1, kappa)
heavy: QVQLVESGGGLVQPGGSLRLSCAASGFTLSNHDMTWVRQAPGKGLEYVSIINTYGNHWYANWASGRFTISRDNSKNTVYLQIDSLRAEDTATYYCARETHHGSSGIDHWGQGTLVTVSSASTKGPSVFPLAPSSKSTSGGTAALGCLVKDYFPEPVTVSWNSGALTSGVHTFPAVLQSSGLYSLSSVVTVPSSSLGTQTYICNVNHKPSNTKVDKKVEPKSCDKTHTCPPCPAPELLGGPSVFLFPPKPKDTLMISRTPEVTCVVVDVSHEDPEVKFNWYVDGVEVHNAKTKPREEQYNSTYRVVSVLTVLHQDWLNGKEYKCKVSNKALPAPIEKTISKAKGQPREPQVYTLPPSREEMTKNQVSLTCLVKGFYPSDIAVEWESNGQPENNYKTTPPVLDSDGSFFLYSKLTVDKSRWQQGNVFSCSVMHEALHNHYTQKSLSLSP
light: B1 light with A25R, S26R, S65R, T69R
notes: copies: 2 + 2
B21: Ab1H/Ab1L015 (antibody, human IgG1, kappa)
heavy: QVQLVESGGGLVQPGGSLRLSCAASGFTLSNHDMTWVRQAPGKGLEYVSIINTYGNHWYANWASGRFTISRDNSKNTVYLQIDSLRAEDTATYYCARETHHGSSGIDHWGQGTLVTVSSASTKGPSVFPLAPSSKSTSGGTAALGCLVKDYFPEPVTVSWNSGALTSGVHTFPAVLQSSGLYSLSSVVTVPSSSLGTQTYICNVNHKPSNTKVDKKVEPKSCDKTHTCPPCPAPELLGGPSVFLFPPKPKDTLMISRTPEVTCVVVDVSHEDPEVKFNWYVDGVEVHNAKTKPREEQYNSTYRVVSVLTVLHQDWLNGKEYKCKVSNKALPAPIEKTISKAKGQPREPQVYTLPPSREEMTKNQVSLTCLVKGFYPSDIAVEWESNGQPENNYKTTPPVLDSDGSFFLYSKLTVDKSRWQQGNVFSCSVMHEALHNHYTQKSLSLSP
light: B1 light with G16K, Q24R, E27R
notes: copies: 2 + 2
B22: Ab1H/Ab1L001 (antibody, human IgG1, kappa)
heavy: not shown
light: B1 light with G16K
notes: light chain = Ab1L with G16K (Kabat); also called Ab1L001T; copies: 2 + 2
B23: Ab1H/Ab1L036 (antibody, human IgG1, kappa)
heavy: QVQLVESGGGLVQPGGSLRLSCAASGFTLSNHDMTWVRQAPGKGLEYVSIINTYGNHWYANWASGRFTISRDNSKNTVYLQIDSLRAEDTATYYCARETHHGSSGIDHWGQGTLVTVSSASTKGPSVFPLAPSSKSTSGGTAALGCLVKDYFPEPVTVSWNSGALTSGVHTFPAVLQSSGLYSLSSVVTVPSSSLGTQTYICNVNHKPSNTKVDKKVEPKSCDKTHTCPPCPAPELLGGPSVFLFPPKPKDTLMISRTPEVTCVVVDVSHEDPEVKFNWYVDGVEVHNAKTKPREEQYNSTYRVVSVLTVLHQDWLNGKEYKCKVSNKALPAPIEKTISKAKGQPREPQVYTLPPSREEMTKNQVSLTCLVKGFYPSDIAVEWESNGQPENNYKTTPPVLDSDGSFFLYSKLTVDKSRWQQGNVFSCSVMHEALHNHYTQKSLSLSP
light: B1 light with Q24R, E27R, S65R, T69R, S76R, Q79K
notes: copies: 2 + 2
B24: Ab1H/Ab1L014 (antibody, human IgG1, kappa)
heavy: not shown
light: B1 light with S76R, Q79K
notes: copies: 2 + 2
B25: Ab1H/Ab1L010 (antibody, human IgG1, kappa)
heavy: not shown
light: B1 light with S52R, S56R
notes: copies: 2 + 2
B26: Ab1H/Ab1L034 (antibody, human IgG1, kappa)
heavy: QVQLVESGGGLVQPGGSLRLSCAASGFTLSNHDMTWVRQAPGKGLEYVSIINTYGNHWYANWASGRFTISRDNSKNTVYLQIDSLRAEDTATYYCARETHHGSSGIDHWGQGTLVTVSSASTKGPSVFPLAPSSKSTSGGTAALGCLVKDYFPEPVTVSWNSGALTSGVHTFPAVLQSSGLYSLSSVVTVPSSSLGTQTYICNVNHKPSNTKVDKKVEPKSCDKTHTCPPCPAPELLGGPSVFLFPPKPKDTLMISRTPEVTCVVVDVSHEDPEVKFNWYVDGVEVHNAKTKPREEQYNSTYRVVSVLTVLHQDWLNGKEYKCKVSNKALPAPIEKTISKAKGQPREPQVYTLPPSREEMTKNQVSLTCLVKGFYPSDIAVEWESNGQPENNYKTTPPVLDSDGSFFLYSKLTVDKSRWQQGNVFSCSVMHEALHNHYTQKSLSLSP
light: B1 light with Q24R, E27R, S52R, S56R, S65R, T69R
notes: copies: 2 + 2
B27: Ab1H/Ab1L033 (antibody, human IgG1, kappa)
heavy: not shown
light: B1 light with Q24R, E27R, G41R, Q42K, S65R, T69R
notes: copies: 2 + 2
B28: Ab1H/Ab1L017 (antibody, human IgG1, kappa)
heavy: not shown
light: B1 light with Q24R, E27R, G41R, Q42K
notes: copies: 2 + 2
B29: Ab1H/Ab1L005 (antibody, human IgG1, kappa)
heavy: not shown
light: B1 light with A25K, S26K
notes: '526K' read as S26K; copies: 2 + 2
B30: Ab1H/Ab1L037 (antibody, human IgG1, kappa)
heavy: not shown
light: B1 light with Q24R, E27R, G41R, Q42K, T74K, S77R
notes: copies: 2 + 2
B31: Ab1H/Ab1L019 (antibody, human IgG1, kappa)
heavy: not shown
light: B1 light with Q24R, E27R, S52R, S56R
notes: copies: 2 + 2
B32: Ab1H/Ab1L029 (antibody, human IgG1, kappa)
heavy: not shown
light: B1 light with A25R, S26R, S52K, S56K
notes: copies: 2 + 2
B33: Ab1H/Ab1L002 (antibody, human IgG1, kappa)
heavy: not shown
light: B1 light with Q24R, E27Q
notes: copies: 2 + 2
B34: Ab1H/Ab1L016 (antibody, human IgG1, kappa)
heavy: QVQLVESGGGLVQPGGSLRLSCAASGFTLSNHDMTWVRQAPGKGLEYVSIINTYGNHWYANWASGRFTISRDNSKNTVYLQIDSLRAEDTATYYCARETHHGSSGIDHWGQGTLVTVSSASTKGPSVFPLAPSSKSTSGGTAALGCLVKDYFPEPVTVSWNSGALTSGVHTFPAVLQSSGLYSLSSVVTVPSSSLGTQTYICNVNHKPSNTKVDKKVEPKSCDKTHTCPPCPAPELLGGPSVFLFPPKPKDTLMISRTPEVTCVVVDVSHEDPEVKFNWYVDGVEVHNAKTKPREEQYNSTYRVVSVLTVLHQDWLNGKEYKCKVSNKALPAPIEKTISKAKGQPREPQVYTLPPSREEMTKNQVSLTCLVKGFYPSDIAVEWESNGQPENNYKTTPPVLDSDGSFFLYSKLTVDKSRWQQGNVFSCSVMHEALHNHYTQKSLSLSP
light: B1 light with Q24R, E27R, Q37R
notes: copies: 2 + 2
B35: Ab1H/Ab1L008 (antibody, human IgG1, kappa)
heavy: not shown
light: B1 light with G41R, Q42K
notes: copies: 2 + 2
B36: Ab1H/Ab1L021 (antibody, human IgG1, kappa)
heavy: not shown
light: B1 light with Q24R, E27R, S65R, T69R
notes: '169R' read as T69R; copies: 2 + 2
B37: Ab1H/Ab1L003 (antibody, human IgG1, kappa)
heavy: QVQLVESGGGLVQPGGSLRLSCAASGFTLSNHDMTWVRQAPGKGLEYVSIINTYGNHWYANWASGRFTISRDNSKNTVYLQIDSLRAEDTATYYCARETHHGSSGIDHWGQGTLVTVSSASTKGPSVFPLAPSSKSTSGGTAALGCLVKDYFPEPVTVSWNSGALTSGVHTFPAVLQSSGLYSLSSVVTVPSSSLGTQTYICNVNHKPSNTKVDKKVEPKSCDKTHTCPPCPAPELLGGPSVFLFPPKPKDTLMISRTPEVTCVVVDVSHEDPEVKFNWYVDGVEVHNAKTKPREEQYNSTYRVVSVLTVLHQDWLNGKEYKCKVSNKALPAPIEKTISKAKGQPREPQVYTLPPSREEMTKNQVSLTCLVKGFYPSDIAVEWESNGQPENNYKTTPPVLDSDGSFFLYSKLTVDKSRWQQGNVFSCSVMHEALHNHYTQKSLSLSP
light: B1 light with Q24R, E27R
notes: copies: 2 + 2
B38: Ab1H/Ab1L018 (antibody, human IgG1, kappa)
heavy: not shown
light: B1 light with Q24R, E27R, L46R, Y49K
notes: copies: 2 + 2
B39: Ab1H/Ab1L035 (antibody, human IgG1, kappa)
heavy: not shown
light: B1 light with Q24R, E27R, S65R, T69R, T74K, S77R
notes: copies: 2 + 2

Biological target: T1, soluble human FcγRIIb
Assay: SPR, Ab-IgE complex over captured hFcγRIIb, pH 7.4, 25C
Method: Fc region variant-containing antibody binding assays between soluble human FcγRIIb (a.k.a. “hFcγRIIb”) and antigen-antibody complexes were performed using BIACORE® T200 (GE Healthcare). Soluble hFcγRIIb was produced in the form of a His-tagged molecule using methods known in the art. An appropriate amount of an anti-His antibody was fixed onto Sensor chip CM5 (GE Healthcare) by the amine coupling method using a His capture kit (GE Healthcare) to capture hFcγRIIb. Next, an antibody-antigen complex and a running buffer (as a reference solution) was injected, and interaction was allowed to take place with the hFcγRIIb captured onto the sensor chip. 20 mM N-(2-Acetamido)-2-aminoethanesulfonic acid, 150 mM NaCl, 1.2 mM CaCl₂, and 0.05% (w/v) Tween 20 at pH 7.4 was used as the running buffer, and the respective buffer was also used to dilute the soluble hFcγRIIb. To regenerate the sensor chip, 10 mM glycine-HCl at pH 1.5 was used. All measurements were carried out at 25° C. Analyses were performed based on binding (RU) calculated from sensorgrains obtained by the measurements, and relative values when the binding amount of P600 was defined as 1.00 are shown. To calculate the parameters, the BIACORE® T100 Evaluation Software (GE Healthcare) was used.

| relative binding (RU), P600=1.00 | Binder |
| --- | --- |
| -0.07 fold | B1 |
| -0.05 fold | B2 |
| 0.47 fold | B3 |

Biological target: T1, soluble human FcγRIIb
Assay: as above
Remark: another data set of the same source
Method: Regarding the produced Fc region variant-containing antibodies, binding assays between soluble human FcγRIIb and antigen-antibody complexes were performed using BIACORE T200 (GE Healthcare). Soluble human FcγRIIb (NCBI accession NM_004001.3) was produced in the form of a His-tagged molecule by a method known in the art. An appropriate amount of an anti-His antibody was fixed onto Sensor chip CM5 (GE Healthcare) by the amine coupling method using a His capture kit (GE Healthcare) to capture human FcγRIIb. Next, an antibody-antigen complex and a running buffer (as a reference solution) were injected, and interaction was allowed to take place with the human FcγRIIb captured onto the sensor chip. 20 mM N-(2-Acetamido)-2-aminoethanesulfonic acid, 150 mM NaCl, 1.2 mM CaCl₂, and 0.05% (w/v) Tween 20 at pH 7.4 was used as the running buffer, and the respective buffer was also used to dilute the soluble human FcγRIIb. To regenerate the sensor chip, 10 mM glycine-HCl at pH 1.5 was used. All measurements were carried out at 25° C. Analyses were performed based on binding (RU) calculated from sensorgrams obtained by the measurements, and relative values when the binding amount of Ab1H/Ab1L (original Ab1) was defined as 1.00 are shown. To calculate the parameters, the BIACORE T100 Evaluation Software (GE Healthcare) was used.

| BIACORE fold (relative binding, original Ab1=1.00) | Binder |
| --- | --- |
| 1.01 fold | B4 |
| 0.97 fold | B5 |
| 1.02 fold | B6 |
| 1.39 fold | B7 |
| 1.45 fold | B8 |
| 1.06 fold | B9 |
| -0.02 fold | B10 |
| 1.47 fold | B11 |
| 1.35 fold | B12 |
| 1.22 fold | B13 |
| 1.46 fold | B14 |
| 1.23 fold | B15 |
| 1.18 fold | B16 |
| 1.7 fold | B17 |
| 0.99 fold | B18 |
| 1.39 fold | B19 |
| 1.16 fold | B20 |
| 1.25 fold | B21 |

| BIACORE fold (relative binding, original Ab1=1.00) | Binder |
| --- | --- |
| 1.03 fold | B22 |
| 1.48 fold | B23 |
| 1.08 fold | B24 |
| 0.98 fold | B25 |
| 1.71 fold | B26 |
| 1.26 fold | B27 |
| 1.27 fold | B28 |
| 0.84 fold | B29 |
| 1.38 fold | B30 |
| 1.17 fold | B31 |
| 1.23 fold | B32 |
| 1.03 fold | B33 |
| 1.36 fold | B34 |
| 1.07 fold | B35 |
| 1.36 fold | B36 |
| 1.09 fold | B37 |
| 0.07 fold | B38 |
| 1.49 fold | B39 |
